B1: SLC19A2 (parent)
chain: FASLRPSEPFLTPYLLGPDKNLTE

Variants of: B1
Experiment: protein stability index of a GFP-peptide fusion (GPS, HEK-293T) (PSI 1-6); higher = more stable
Details: c terminus: a fixed tail appended
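Further: lentivirally expressed fusions sorted by FACS into six bins by GFP to DsRed ratio, PSI derived from sequencing read proportions per bin multiplied by bin number.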

Protein stability index: each site, then its substitutions
R5: N 1.68, W 2.43, Q 2.34, S 2.07, P 2.36, V 2.6, I 2.13, A 2.03, M 1.94, L 2.1, T 1.98, G 1.57, Y 2.39, H 2.17, C 1.99, K 1.88, E 2.58, D 1.73, F 2.32
P6: A 1.12, G 1.71, M 1.36, Y 1.83, V 1.9, N 1.76, T 2.7, Q 2.16, W 2.98, S 1.78, L 1.8, E 1.65, C 1.99, D 2.17, K 2.13, F 1.58, R 2.12, I 3.26, H 1.54
D19: S 2.5, T 1.9, I 1.92, A 1.56, R 2.25, F 1.87, H 1.57, P 1.67, C 1.44, N 1.46, Y 2.89, L 1.58, K 1.58, V 2.16, E 2.24, M 2.1, W 3.08, Q 1.57, G 1.75
L4: W 3.5, R 2.24, E 2.65, Q 2.15, V 1.86, T 2.23, I 2.44, M 1.48, N 1.74, G 2.93, P 2.98, K 1.48, Y 1.7, A 1.89, S 1.61, F 1.93, C 1.61, H 1.69, D 2.76
P18: H 2.53, E 2.27, L 1.8, S 1.87, R 1.55, N 1.48, W 1.76, Y 1.61, G 1.51, F 1.54, C 1.98, D 2, K 2.12, T 1.4, I 2.31, V 1.41, A 1.65, Q 2, M 2.06
S3: Y 2.53, M 1.74, N 2.78, G 1.65, E 1.45, I 1.69, R 1.71, C 1.23, A 1.59, T 2.83, F 1.93, K 2.78, L 1.76, H 1.87, W 1.54, P 2.43, Q 2.61, V 2.65, D 3.05
E8: A 1.49, K 2.1, Q 1.69, C 1.68, L 1.26, S 1.98, Y 1.72, T 1.81, N 2.3, G 1.99, I 2.19, F 1.78, H 1.66, P 2.12, W 2.48, M 1.88, V 2.14, R 1.59, D 1.63
T12: G 2.35, Y 2.24, C 2.1, A 1.79, K 1.88, V 1.28, H 1.72, W 2.17, F 1.74, S 1.93, L 1.67, P 1.89, M 1.93, I 2, Q 2.3, R 1.74, N 2.05, D 1.97, E 3.47
K20: G 2.04, N 2.13, D 2.1, P 1.92, I 2.44, C 1.18, L 2.1, E 1.94, F 1.62, A 2.14, H 1.97, M 1.98
G17: V 1.89, N 2.06, Y 1.79, D 1.59, A 1.81, R 1.99, M 1.7, T 1.96, F 2.15, Q 2.23, P 2.62, S 2.41, H 1.75, C 1.05, W 2.1, I 4.07, L 2.22, E 1.86, K 2.23
P13: R 1.68, V 2.02, T 1.66, E 1.95, S 1.99, G 1.59, C 1.84, D 2.28, N 1.86, I 2.91, Y 1.58, H 1.76, L 2.14, M 1.46, K 2.56, A 2.58, Q 1.94, F 2.1, W 1.88
L16: F 2.04, W 2.14, T 1.8, S 2.56, E 2.21, K 2.27, V 1.79, N 2.12, R 2.44, Q 1.8, C 2.07, I 1.51, M 1.79, D 2.65, A 2.31, G 2.85, P 1.79, H 2.86, Y 1.3
Y14: W 1.46, C 2.27, K 2.42, P 3.25, H 2.57, D 2.49, T 2.58, A 2.42, Q 2.69, E 2.76, M 2.6, R 2.87, V 2.22, S 2.21, F 2.38, L 2.06, G 2.18, N 3.22, I 2.66
F10: Y 2.04, G 2.3, P 3.15, M 2.35, Q 2.44, R 2.94, E 2.66, S 2.16, W 2.88, T 2.15, K 2.72, A 2.52, L 2.12, D 3.28, N 3.22, H 2.61, V 2.67, I 2.23, C 2.11
L15: C 2.23, W 1.44, F 1.67, Q 1.76, N 2.3, I 1.99, H 1.55, Y 1.78, R 1.68, V 1.86, D 2.43, K 1.84, A 1.91, E 2.03, M 2.23, G 1.77, S 1.79, P 1.97, T 2.19
P9: C 2.26, L 2.5, E 1.82, S 1.61, V 2.9, N 2.52, Y 2.29, F 3.54, W 2.12, T 2.48, M 2.37, G 2.18, Q 1.98, K 1.78, H 1.67, I 1.77, R 1.39, D 2.85, A 2.27
S7: R 1.71, Y 1.42, M 1.24, N 1.9, C 2.28, A 1.68, G 2.07, F 2.01, W 3.01, P 1.87, D 1.92, K 1.98, T 1.75, V 2.27, E 1.82, H 2.03, Q 1.76, I 1.5, L 1.72
L11: R 1.81, Q 2.09, P 2.03, E 2.88, F 2.63, A 2.42, T 1.94, K 2.03, D 2.29, C 1.86, W 3.29, N 1.78, G 2.06, M 2.18, S 1.91, V 1.61, H 2.03, I 1.58

Reference: the supplement of paper PMC10567573
